According to article PMC3377065 (EMBO Molecular Medicine, 2011):
Where “and” joins values, the source holds several entries; their conditions need not be identical. Equal entries are not always repeated.

B1: human CMG2 C39A, V5-tagged (receptor)
chain: not shown
B2: human CMG2 C218A, V5-tagged (receptor)
chain: not shown
B3: human CMG2 C230A, V5-tagged (receptor)
chain: not shown
B4: human CMG2 C255A, V5-tagged (receptor)
chain: not shown
B5: human CMG2 C279A, V5-tagged (receptor)
chain: not shown
B6: human CMG2 C315A, V5-tagged (receptor)
chain: not shown
B7: human CMG2 C230A–C315A double mutant, V5-tagged (receptor)
chain: not shown

Target: the molecule itself
Assay: non-reducing SDS-PAGE and Western blot

Protein	stoichiometry N
B1	2
B2	2
B3	3 and 4
B4	3 and 4
B5	3 and 4
B6	3 and 4
B7	2
